Experimental data published in publication PMC4103757.
Numbered stars: 1 amine (or outer) side, 2 acyl side, 3 side chain; on linkers, the order of the positions; unused ones are H or OH. Suc = O=C(CCC(=O)[*:2])[*:1]

Molecular target: scFv-L-Aff, heterobivalent fusion protein of anti-hapten scFv (clone J42) and anti-HER2 affibody (Z_(HER2:477))
Assay: SPR

B1: hapten peptide, histamine-succinyl-GSYK (peptide)
peptide: {histamine-Suc}-GSYK-NH2
percent inhibition of the binding of scFv-L-Aff to immobilised hapten: 84%
